In article PMC10322149 (2023):
Residue numbers refer to the chain shown, from its start. Names and notes keep the numbering of the source.

B1: Homer1-R3E (natural protein)
chain: MGEQPIFSTRAHVFQIDPNTKKNWVPTSKHAVTVSYFYDSTENVYEIISLDGSKAIINSTITPNMTFTKTSQKFGQWADSEANTVYGLGFSSEHHLSKFAEKFQEFKEAARLAKEKSQEKMELTSTPSQESAGGDLQSPLTPESINGTDDERTPDVTQNSEPRAEPAQNALPFSHSAGDRTQGLSHASSAISKHWEAELATLKGNNAKLTAALLESTANVKQWKQQLAAYQEEAERLHKRVTELECVSSQANAVHSHKTELSQTVQELEETLKVKEEEIERLKQEIDNARELQEQRDSLTQKLQEVEIRNKDLEGQLSELEQRLEKSQSEQDAFRSNLKTLLEILDGKIFELTELRDNLAKLLECS
B2: Homer1-WT (full-length Homer1) (natural protein)
chain: B1 chain with E42R, E46R, E81R

Molecular target: Shank3 (UniProt Q4ACU6 1-1730)
Sequence (Q4ACU6 whole entry): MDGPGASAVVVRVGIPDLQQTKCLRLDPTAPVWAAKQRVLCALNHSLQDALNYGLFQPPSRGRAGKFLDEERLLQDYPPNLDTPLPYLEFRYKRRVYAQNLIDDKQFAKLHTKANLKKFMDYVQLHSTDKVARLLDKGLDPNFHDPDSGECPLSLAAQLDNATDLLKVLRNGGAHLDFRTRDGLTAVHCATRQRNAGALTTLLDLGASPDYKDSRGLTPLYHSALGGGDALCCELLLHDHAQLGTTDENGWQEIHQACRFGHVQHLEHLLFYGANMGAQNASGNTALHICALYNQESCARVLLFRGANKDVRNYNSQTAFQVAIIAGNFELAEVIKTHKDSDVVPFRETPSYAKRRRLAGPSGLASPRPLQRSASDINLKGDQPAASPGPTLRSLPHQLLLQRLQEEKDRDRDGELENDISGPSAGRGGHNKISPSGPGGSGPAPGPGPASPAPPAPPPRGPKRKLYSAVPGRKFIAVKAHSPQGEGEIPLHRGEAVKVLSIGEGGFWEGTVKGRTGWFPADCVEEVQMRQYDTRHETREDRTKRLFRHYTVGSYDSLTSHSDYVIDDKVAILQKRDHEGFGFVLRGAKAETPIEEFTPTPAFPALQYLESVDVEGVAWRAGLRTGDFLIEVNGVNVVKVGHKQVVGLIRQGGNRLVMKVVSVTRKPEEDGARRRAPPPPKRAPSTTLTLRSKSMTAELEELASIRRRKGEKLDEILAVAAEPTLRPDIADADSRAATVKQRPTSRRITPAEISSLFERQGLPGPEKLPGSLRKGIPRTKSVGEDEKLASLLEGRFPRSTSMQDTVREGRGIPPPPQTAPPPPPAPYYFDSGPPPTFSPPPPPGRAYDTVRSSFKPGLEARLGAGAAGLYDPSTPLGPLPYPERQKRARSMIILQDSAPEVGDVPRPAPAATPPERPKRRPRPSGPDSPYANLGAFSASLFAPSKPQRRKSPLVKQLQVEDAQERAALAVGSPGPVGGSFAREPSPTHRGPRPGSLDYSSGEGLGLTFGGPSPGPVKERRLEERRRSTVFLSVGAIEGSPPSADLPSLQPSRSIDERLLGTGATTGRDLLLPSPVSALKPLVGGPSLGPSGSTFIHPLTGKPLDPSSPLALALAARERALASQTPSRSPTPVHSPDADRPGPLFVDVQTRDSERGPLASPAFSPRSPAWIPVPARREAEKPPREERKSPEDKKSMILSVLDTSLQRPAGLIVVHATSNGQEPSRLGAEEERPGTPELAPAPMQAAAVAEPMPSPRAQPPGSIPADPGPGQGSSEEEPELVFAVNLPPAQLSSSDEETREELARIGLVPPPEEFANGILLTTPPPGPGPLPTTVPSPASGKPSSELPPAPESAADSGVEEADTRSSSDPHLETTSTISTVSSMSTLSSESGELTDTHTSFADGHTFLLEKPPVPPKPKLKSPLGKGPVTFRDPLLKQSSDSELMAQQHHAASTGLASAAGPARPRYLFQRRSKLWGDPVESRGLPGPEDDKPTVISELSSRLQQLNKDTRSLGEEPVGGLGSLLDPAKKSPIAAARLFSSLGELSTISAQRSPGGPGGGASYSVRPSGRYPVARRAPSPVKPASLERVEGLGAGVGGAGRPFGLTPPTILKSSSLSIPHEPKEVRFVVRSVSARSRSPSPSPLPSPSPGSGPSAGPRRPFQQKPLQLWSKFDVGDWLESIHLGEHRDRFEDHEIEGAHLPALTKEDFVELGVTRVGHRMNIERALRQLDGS
Assay: ITC

Row | Binder | Kd [nM]
1 | B1 | 2400
2 | B2 | 1000
